By EC50 is commonly meant the concentration at which the effect is half-maximal. Read a high EC50 as a less potent agent.

Numbering of substitutions follows the chain as printed.

From patent EP4663661A1 (Hainan Simcere Zaiming Pharmaceutical Co., Ltd., dated 2025) come the findings set out here.

The labels stand for the following.
B1: CHI-CDH6-4 (antibody, human IgG1, kappa, V domains shown)
VH: QVQLQQSGPELVKPGASVKISCKASGYAFSNFWMNWVKQRPGKGLEWIGWIYPGDGDTNYNGKFKDKATLTADKSSSTAYIQLSSLTSEDSAVYFCARLYDAWGFFDYWGQGTTLTVSS
VL: QIVLTQSPAIMSASPGQKVTITCSASSSVNYMHWYQQKLGSSPKLWIYDKSKLAPGVPARFSGSGSGTSYSLTISSMEAEDAASYFCHQWSSYPPMTFGGGTKLEIKR
B2: CHI-CDH6-3 (antibody, human IgG1, kappa, V domains shown)
VH: QVQLQQPGAELVKPGASVKLSCKASGYTFTSYWIHWVKQRPGQGLEWIGEINPSNGVTNCNENFKSKATLTVDKSSSTAYMQLSSLTSEDSAVYYCTIPNLLWWYFDVWGAGTTVTVSS
VL: DIQMTQSPASLSVSVGETVTITCRASENIYSNLAWYQQKQGKSPQLLVYEATNLADGVPSRFSGSGSGTQYSLKINSLQSEDFGSYYCQHFWGTLWTFGGGTKLEIKR
B3: NOV0712 (antibody, human IgG1, kappa, V domains shown)
VH: QVQLLESGGGLVQPGGSLRLSCAASGFTFSSHGMHWVRQAPGKGLEWVSVISGSGSNTGYADSVKGRFTISRDNSKNTLYLQMNSLRAEDTAVYYCARQWGSYAFDSWGQGTLVTVSS
VL: DIQMTQSPSSLSASVGDRVTITCRASQSISSYLNWYQQKPGKAPKLLIYAVSTLQSGVPSRFSGSGSGTDFTLTISSLQPEDFATYYCQQSGTFPPTTFGQGTKVEIKR
B4: DS-H01L02 (antibody, human IgG1, kappa, V domains shown)
VH: EVQLVQSGAEVKKPGASVKVSCKASGYTFTRNFMHWVRQAPGQGLEWMGWIYPGDGETEYAQKFQGRVTITADTSTSTAYMELSSLRSEDTAVYYCARGVYGGFAGGYFDFWGQGTLVTVSS
VL: DIQMTQSPSSLSASVGDRVTITCKASQNIYKNLAWYQQKPGKAPKLLIYDANTLQTGVPSRFSGSGSGSDFTLTISSLQPEDFATYFCQQYYSGWAFGQGTKVEIKR
B5: CHI-CDH6-7 (antibody, human IgG1, kappa, V domains shown)
VH: EVKLVESGGGLVKPGGSLKVSCAASGFTFSDHGMAWVRQAPGKGPEWVAFISNLAYSIYYADTVTGRFTISRENAKNTLYLEMSSLRSEDTAMYYCARVYVKWYFDVWGAGTTVTVSS
VL: DIQMTQSPASLSASVGETVTITCRASENIDSYLAWYQQKQGKSPQLLVFAATLLADGVPSRFSGSGSGTQYSLKINSLQSEDVARYYCQHYYSTPLTFGAGTKLELKR
B6: CHI-CDH6-5 (antibody, human IgG1, kappa, V domains shown)
VH: QVQLQQSGAELVRPGTSVKMSCKAAEYTFTNYWIGWVKQRPGHGLEWIGDLYPGGDHANYNEKFEGKATLTADTSSSTAYMQLSSLTSEDSAIYYCARGMLTTGFDSWGQGTTLTVSS
VL: DIVMSQSPSSLAVSAGEKVTMSCKSSQSLFNSRTRKNYLAWYQQKPGQSPKLLIYWASTRESGVPDRFTGSGSGTDFTLTISSVQAEDLAVYYCKQSYYLRTFGGGTKLEIKR
B7: CHI-CDH6-11 (antibody, human IgG1, kappa, V domains shown)
VH: QIQLQQSGPELVKPGASVRISCKASGYTFTDYYITWVKLRPGQGLEWIGWIYPGSVNIKYNEKFKGKATLTVDTSSSTAYMQLNSLTSEDSAVYFCARGGYSWFPYWGQGTLVTVSA
VL: NIVMTQSPKSMSMSVGERVTLSCKASENVHTYVSWYQQKPEQSPKLLFYGASTRNTGVPDRFTGSGSATDFTLTISSVQAEDLADYYCGQSYSYPYTFGSGTKLEIKR
B8: CHI-CDH6-9 (antibody, human IgG1, kappa, V domains shown)
VH: QVQLQQPGAELVKPGASVKLSCKASGYTFTGYWMHWVRQRPGQGLEWIGEINPNNGGTNCNEQFKNKATLTVDKSSSTAYMQLSSLTSEDSAVFYCTISFGNYLFFDVWGAGTTVTVSS
VL: DIQMTQSPASLAASVGETITITCQASENIYFSLAWYQQKQGKSPQLLIYNANTLEDGVPSRFVGSGSGTQYSMKINSIQPEDTATYFCDQTYDFPWTFGGGTKLEIKR
B9: CHI-CDH6-6 (antibody, human IgG1, kappa, V domains shown)
VH: EVQLQQSGPELVKPGDSVKMSCKASGYTFTDYYMAWVRQSHRKSLEWIGYIFPNSGGTDYSQKFKGKATLTVDKSSSTVYMELHSLTSEDSAVYYCARELGADYGDYYAMDHWGQGTSVSVSS
VL: B5 VL with F49Y, A50S, Q79K, S93R, L96P, A100S, L106I
B10: CHI-CDH6-8 (antibody, human IgG1, kappa, V domains shown)
VH: EVQLQQSGPELVKPGDSVKMSCKASGYTFTDYYMAWIKQNHGKSLEWIGYIYPNNGGTDYNQKFRGKATLTVDKSSSAAYMELHSLTSEDSAVYYCAREIGTLYGDYYAMDYWGQGTSVTVSS
VL: B5 VL with F49Y, A50T, L96P, A100S, L106I
B11: CHI-CDH6-2 (antibody, human IgG1, kappa, V domains shown)
VH: EVQLQQSGPELVKPGASVRISCKASGYTFTDYYMNWVKQSHGKSLEWIGDIDPNNANTTYNQKFKGKATLTVDKSSSTAYMELRSLTSEDSAVYSCASFGYDVEWFGYWGQGTLVTVSA
VL: QIVLTQSPALMSASPGEKVTMTCSASSSVSYMYWYQQKPRSSPKPWIYLTSNLASGVPARFSGSGSGTSYSLTISSMEAEDAATYYCQQWSSNPFTFGSGTKLEIKR
B12: CHI-CDH6-13 (antibody, human IgG1, kappa, V domains shown)
VH: DVQLQESGPGLVKPSQSLSLTCSVTGYSITKDSYWNWIRQFPGSKLEWMGFISYDGSRHYNPSLKNRISITRDTSKNQFFLQLNSVTTEDTATYYCARRDYADYWGQGTTLTVSS
VL: B11 VL with S14F, S26T, M32I, S75N, M77L, N93I, F95Y, S99G

murine CDH6 protein (mCDH6 ECD-his) (mouse), sequence (P97326 19-615 limits assumed, form in doubt): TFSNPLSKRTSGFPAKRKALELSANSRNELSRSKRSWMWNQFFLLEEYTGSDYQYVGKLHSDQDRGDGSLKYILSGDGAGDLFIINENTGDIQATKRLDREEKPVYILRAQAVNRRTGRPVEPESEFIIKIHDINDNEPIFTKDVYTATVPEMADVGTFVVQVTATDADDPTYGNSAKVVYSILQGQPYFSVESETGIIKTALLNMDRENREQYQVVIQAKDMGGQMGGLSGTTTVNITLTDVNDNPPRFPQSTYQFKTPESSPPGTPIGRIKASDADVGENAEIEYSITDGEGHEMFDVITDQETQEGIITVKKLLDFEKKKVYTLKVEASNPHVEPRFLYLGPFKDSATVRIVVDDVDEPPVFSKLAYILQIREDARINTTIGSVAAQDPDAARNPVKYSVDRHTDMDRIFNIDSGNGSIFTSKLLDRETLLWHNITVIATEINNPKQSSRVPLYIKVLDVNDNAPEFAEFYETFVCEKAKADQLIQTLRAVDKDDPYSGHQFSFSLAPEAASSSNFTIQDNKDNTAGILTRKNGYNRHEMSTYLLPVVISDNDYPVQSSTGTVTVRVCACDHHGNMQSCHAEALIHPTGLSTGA

For one assay, the target named is human CDH6 with EC2 removed, on HEK293T cells (HEK293T-hCDH6-EC2 deletion) (human) (UniProt P55285). The assay is described as follows: FACS, HEK293T-hCDH6-EC2 deletion cells.
In the case of B1, the Max MFI was 75 MFI.
As to B2, the Max MFI came to 7550 MFI.
Same read-out and setting: for B3 the value was 39100 MFI.
For B4, the Max MFI turned out to be 8390 MFI.
Turning to B5, the Max MFI stood at 13000 MFI.
On the same count and under the same terms, the value for B6 was 343 MFI.

The target in a further assay is human CDH6 with EC3 removed, on HEK293T cells (HEK293T-hCDH6-EC3 deletion) (human) (UniProt P55285). In words: FACS, HEK293T-hCDH6-EC3 deletion cells. Background: Flow cytometry measures light scatter and fluorescence of single cells or particles in a stream.
In turn, B1 came in with a Max MFI of 15100 MFI.
Turning to B2, the Max MFI stood at 689 MFI.
B3 displayed a Max MFI of 16300 MFI.
The same measure, in the same setting: for B5 the value was 9060 MFI; for B6, 12200 MFI.

A further assay deals with human CDH6 with EC4 removed, on HEK293T cells (HEK293T-hCDH6-EC4 deletion) (human) (UniProt P55285). In words: FACS, HEK293T-hCDH6-EC4 deletion cells.
For the molecule B1, the Max MFI was found to be 22200 MFI.
On the same count and under the same terms, the value for B2 was 16800 MFI; that for B3 was 20600 MFI.
On the same count and under the same terms, for B4 the value was 11800 MFI; for B5, 17400 MFI; for B6, 18700 MFI.

A further assay addresses murine CDH6 protein (mCDH6 ECD-his) (mouse) (UniProt P97326). The assay is described as follows: ELISA, antigen coated.
In turn, B1 yielded an EC50 of 0.035 nM and a Max OD450 of 2.32 OD450.
Taken in the same sequence, the figures for B7 were 0.04 nM and 1.77 OD450.
Molecule B2 registered an EC50 of 0.051 nM and a Max OD450 of 2.38 OD450.
The matching figures for B3: 0.039 nM and 2.42 OD450.
Taken in the same sequence, the figures for B8 were 0.022 nM and 2.77 OD450.
The molecule B4 gave a Max OD450 of 0.6 OD450.
The molecule B9 showed an EC50 of 0.025 nM and a Max OD450 of 1.6 OD450.
On to B10, for which the EC50 is 0.028 nM and the Max OD450 was found to be 1.82 OD450.
The matching figures for B5: 0.058 nM and 2.12 OD450.
Taken in the same sequence, the figures for B6 were 0.046 nM and 1.92 OD450.
Taken in the same sequence, the figures for B11 were 0.023 nM and 1.62 OD450.
Molecule B12 had an EC50 of 0.016 nM and a Max OD450 of 2.76 OD450.

Another assay concerns the target human CDH6 with EC1 removed, on HEK293T cells (HEK293T-hCDH6-EC1 deletion) (human) (UniProt P55285). In words: FACS, HEK293T-hCDH6-EC1 deletion cells.
B1 had a Max MFI of 10200 MFI.
The same measure, in the same setting: the value for B2 was 11100 MFI; that for B3 was 23600 MFI.
Molecule B4 returned a Max MFI of 5290 MFI.
On the same count and under the same terms, the value for B5 was 88 MFI; that for B6 was 112 MFI.

The next assay deals with human CDH6 with EC5 removed, on HEK293T cells (HEK293T-hCDH6-EC5 deletion) (human) (UniProt P55285). In words: FACS, HEK293T-hCDH6-EC5 deletion cells.
For B1, the Max MFI came to 6540 MFI.
In the case of B2, the Max MFI was found to be 5610 MFI.
The molecule B4 displayed a Max MFI of 1530 MFI.
On the same count and under the same terms, for B5 the value was 1020 MFI; for B6, 4240 MFI.
